B1: peptide HD2 (from tick evasin EVA4) / CXCL11 (biotinylated, synthetic) (parent)
chain 1: EEDDYTAYAPLTCYFT
chain 2: FPMFKRGRCLCIGPGVKAVKVADIEKASIMYPSNNCDKIEVIITLKENKGQRCLNPKSKQARLIIKKVERKNF
B2: peptide HD2 (from tick evasin EVA4) / CXCL14 (biotinylated, synthetic) (parent)
chain 1: EEDDYTAYAPLTCYFT
chain 2: SKCKCSRKGPKIRYSDVKKLEMKPKYPHCEEKMVIITTKSVSRYRGQEHCLHPKLQSTKRFIKWYNAWNEKRRVYEE

The variants in the first assay derive from B1. Conditions: with CXCL11 (biotinylated, synthetic); scale: log2.
On to chain 1 EECDYTAYAPLTCYFT, for which the enrichment was -7.03.
Regarding chain 1 EEMDYTAYAPLTCYFT, the enrichment is -4.98.
Same read-out and setting: the result for chain 1 EEEDYTAYAPLTCYFT reads -1.84; that for chain 1 EEDDYTAYAPLGCYFT, -7.44; that for chain 1 EEDDYTAYAPLKCYFT, -4.72.
The same measure, in the same setting: the result for chain 1 EEDDYTAYAYLTCYFT reads -5.7; that for chain 1 EEDDYTAYAKLTCYFT, -4.1.
Consider chain 1 EEDDYTAYACLTCYFT, for which the enrichment is -6.86.
As to chain 1 EEDDYTAYARLTCYFT, the enrichment was -6.22.
chain 1 EEDDYTAYAFLTCYFT: the enrichment was -6.55.
With chain 1 EEDDYTAYAQLTCYFT, the enrichment is -3.53.
Same read-out and setting: the result for chain 1 KEDDYTAYAPLTCYFT reads -3.21; that for chain 1 CEDDYTAYAPLTCYFT, -6.89; that for chain 1 REDDYTAYAPLTCYFT, -5.11.

The variants in the next assay derive from B2. Particulars: with CXCL14 (biotinylated, synthetic); scale: log2.
With chain 1 EEDDYTAYAPKTCYFT, the enrichment was -5.25.
On the same count and under the same terms, the result for chain 1 EEDDYTAYAPGTCYFT reads -8.51.
Consider chain 1 EEDDYTAYAPPTCYFT, for which the enrichment was -6.36.
Take chain 1 EEDDYTAYAPETCYFT: the enrichment was -6.43.
As to chain 1 CEDDYTAYAPLTCYFT, the enrichment was -8.01.
Still for that read-out and setting: the figure for chain 1 AEDDYTAYAPLTCYFT is -5.59; for chain 1 REDDYTAYAPLTCYFT it is -6.24.
On the same count and under the same terms, the figure for chain 1 GEDDYTAYAPLTCYFT is -5.5; for chain 1 MEDDYTAYAPLTCYFT it is -5.07; for chain 1 HEDDYTAYAPLTCYFT it is -6.24.
As to chain 1 NEDDYTAYAPLTCYFT, the enrichment is -6.84.
As to chain 1 PEDDYTAYAPLTCYFT, the enrichment was -5.8.
The same measure, in the same setting: the figure for chain 1 KEDDYTAYAPLTCYFT is -4.33.
Still for that read-out and setting: the result for chain 1 ECDDYTAYAPLTCYFT reads -8.27.
Still for that read-out and setting: the result for chain 1 EHDDYTAYAPLTCYFT reads -5.9; that for chain 1 ERDDYTAYAPLTCYFT, -5.39.
As for chain 1 EQDDYTAYAPLTCYFT, the enrichment is -3.16.
The same measure, in the same setting: the figure for chain 1 EPDDYTAYAPLTCYFT is -5.31; for chain 1 EKDDYTAYAPLTCYFT it is -3.41; for chain 1 EADDYTAYAPLTCYFT it is -5.18.
With chain 1 EEDRYTAYAPLTCYFT, the enrichment was -5.35.
For the variant chain 1 EEDVYTAYAPLTCYFT, the enrichment is -8.11.
On to chain 1 EEDTYTAYAPLTCYFT, for which the enrichment is -6.14.
Same read-out and setting: the result for chain 1 EEDQYTAYAPLTCYFT reads -4.74; that for chain 1 EEDHYTAYAPLTCYFT, -6.03; that for chain 1 EEDLYTAYAPLTCYFT, -9.04.
Still for that read-out and setting: the result for chain 1 EEDKYTAYAPLTCYFT reads -5.14; that for chain 1 EEDGYTAYAPLTCYFT, -4.48; that for chain 1 EEDAYTAYAPLTCYFT, -6.34.
In the case of chain 1 EEDCYTAYAPLTCYFT, the enrichment was -7.5.
On the same count and under the same terms, the result for chain 1 EEDDYTAYAPLTHYFT reads -6.91.
With chain 1 EEDDYTAYAPLTLYFT, the enrichment was -9.57.
Regarding chain 1 EEDDYTAYAPLTYYFT, the enrichment is -7.01.
Consider chain 1 EEDDYTAYAPLTIYFT, for which the enrichment was -6.44.
Still for that read-out and setting: the figure for chain 1 EEDDYTAYAPLTMYFT is -7.78.
Consider chain 1 EEDDYTAYAPLTRYFT, for which the enrichment is -8.81.
Same read-out and setting: the figure for chain 1 EEDDYTAYAPLTQYFT is -7.64; for chain 1 EEDDYTAYAPLTFYFT it is -6.89; for chain 1 EEDDYTAYAPLTKYFT it is -7.38.
On to chain 1 EEDDYTAYANLTCYFT, for which the enrichment was -6.28.
In the case of chain 1 EEDDYTAYATLTCYFT, the enrichment was -6.13.
Same read-out and setting: the figure for chain 1 EEDDYTAYACLTCYFT is -7.98.
With chain 1 EEDDYTAYAKLTCYFT, the enrichment was -5.23.
The same measure, in the same setting: the figure for chain 1 EEDDYTAYAILTCYFT is -6.7; for chain 1 EEDDYTAYAYLTCYFT it is -6.83.
On the same count and under the same terms, the figure for chain 1 EEDDYTAYARLTCYFT is -7.34; for chain 1 EECDYTAYAPLTCYFT it is -8.16; for chain 1 EERDYTAYAPLTCYFT it is -5.71.
On to chain 1 EEWDYTAYAPLTCYFT, for which the enrichment was -5.18.
Same read-out and setting: the result for chain 1 EEVDYTAYAPLTCYFT reads -7.6; that for chain 1 EELDYTAYAPLTCYFT, -8.51; that for chain 1 EEHDYTAYAPLTCYFT, -5.23.
For chain 1 EEADYTAYAPLTCYFT, the enrichment was -5.29.
chain 1 EEKDYTAYAPLTCYFT: the enrichment is -3.62.
The same measure, in the same setting: the result for chain 1 EEQDYTAYAPLTCYFT reads -3.25; that for chain 1 EEMDYTAYAPLTCYFT, -6.1; that for chain 1 EESDYTAYAPLTCYFT, -7.81.
Same read-out and setting: the result for chain 1 EEDDYTCYAPLTCYFT reads -8.1; that for chain 1 EEDDNTAYAPLTCYFT, -5.97.
In the case of chain 1 EEDDPTAYAPLTCYFT, the enrichment is -4.99.
Same read-out and setting: the result for chain 1 EEDDGTAYAPLTCYFT reads -5.37; that for chain 1 EEDDSTAYAPLTCYFT, -7.36; that for chain 1 EEDDRTAYAPLTCYFT, -5.31.
On the same count and under the same terms, the result for chain 1 EEDDQTAYAPLTCYFT reads -3.62; that for chain 1 EEDDATAYAPLTCYFT, -5.33.
On to chain 1 EEDDDTAYAPLTCYFT, for which the enrichment is -5.31.
Take chain 1 EEDDKTAYAPLTCYFT: the enrichment is -3.86.
Regarding chain 1 EEDDETAYAPLTCYFT, the enrichment was -1.74.
Same read-out and setting: the figure for chain 1 EEDDTTAYAPLTCYFT is -5.93.
On the same count and under the same terms, the figure for chain 1 EEDDYTAYAPLTCYFR is -7.45; for chain 1 EEDDYTAYAPLTCYFF it is -5.71.
With chain 1 EEDDYTAYAPLTCYFY, the enrichment was -5.41.
With chain 1 EEDDYTAYAPLTCYET, the enrichment is -7.19.
chain 1 EEDDYTAYAPLTCYTT: the enrichment is -5.59.
On the same count and under the same terms, the figure for chain 1 EEDDYTAYAPLTCYPT is -5.62; for chain 1 EEDDYTAYAPLTCYKT it is -5.27.
On to chain 1 EEDDYTAYAPLTCYDT, for which the enrichment was -6.86.
Turning to chain 1 EEDDYTAYPPLTCYFT, the enrichment was -6.07.
Still for that read-out and setting: the figure for chain 1 EEDDYTAYRPLTCYFT is -6.78; for chain 1 EEDDYTAYCPLTCYFT it is -8.35.

For the origin of these results see article PMC11969024, “Development of chemokine network inhibitors using combinatorial saturation mutagenesis” (Communications Biology, 2025).
